B1: MYT0629 (antibody, V domains shown)
VH: QVQLVQSGAEVVKPGASVKISCKASGYTFTGYFMNWVKQSPGQSLEWIGRIHPYDGDTFYNQKFQGKATLTVDKSSNTAHMELLSLTSEDFAVYYCTRHDGSRAMDYWGQGTTVTVSS
VL: DIVLTQSPLSLAVSLGQPAIISCKASQSVSFAGTSLMHWYHQKPGQQPRLLIYRASNLEAGVPDRFSGSGSKTDFTLTISPVEAEDAATYYCQQSREYPYTFGGGTKLEIK
notes: IgG
B2: MYT0636 (antibody, V domains shown)
VH: QVQLVQSGAEVVKPGASVKISCKASGYTFTGYFMNWVKQSPGQSLEWIGRIHPYDGDTFYNQKFQGKATLTVDKSSNTAHMELLSLTSEDFAVYYCTRYDGSRAMHYWGQGTTVTVSS
VL: DIVLTQSPLSLAVSLGQPAIISCKASQSVSFAGTSLMHWYHQKPGQQPRLLIYRASNLEAGVPDRFSGSGSKTDFTLTISPVEAEDAATYYCQQSREYPYTFGGGTKLEIK
notes: IgG
B3: MYT0633 (antibody, V domains shown)
VH: QVQLVQSGAEVVKPGASVKISCKASGYTFTGYFMNWVKQSPGQSLEWIGRIHPYDGDTFYNQKFQGKATLTVDKSSNTAHMELLSLTSEDFAVYYCTRYDGSHAMDYWGQGTTVTVSS
VL: DIVLTQSPLSLAVSLGQPAIISCKASQSVSFAGTSLMHWYHQKPGQQPRLLIYRASNLEAGVPDRFSGSGSKTDFTLTISPVEAEDAATYYCQQSREYPYTFGGGTKLEIK
notes: IgG
B4: MYT0637 (antibody, V domains shown)
VH: QVQLVQSGAEVVKPGASVKISCKASGYTFTGYFMNWVKQSPGQSLEWIGRIHPYDGDTFYNQKFQGKATLTVDKSSNTAHMELLSLTSEDFAVYYCTRYDGSRAMDHWGQGTTVTVSS
VL: DIVLTQSPLSLAVSLGQPAIISCKASQSVSFAGTSLMHWYHQKPGQQPRLLIYRASNLEAGVPDRFSGSGSKTDFTLTISPVEAEDAATYYCQQSREYPYTFGGGTKLEIK
notes: IgG
B5: MYT1155 (antibody, V domains shown)
VH: QVQLVQSGAEVVKPGASVKISCKHSGYTFTGYFMNWVKQSPGQSLEWIGRIHPHDGDHFYNQKFQGKATLTVDKSSNTAHMELLSLTSEDFAVYYCTRYDGSRAMDYWGQGTTVTVSS
VL: DIVLTQSPLSLAVSLGQPAIISCKASQSVSFAGTSLMHWYHQKPGQQPRLLIYRASNLEAGVPDRFSGSGSKTDFTLTISPVEAEDAATYYCQQSREYPYTFGGGTKLEIK
notes: IgG
B6: MYT0630 (antibody, V domains shown)
VH: QVQLVQSGAEVVKPGASVKISCKASGYTFTGYFMNWVKQSPGQSLEWIGRIHPYDGDTFYNQKFQGKATLTVDKSSNTAHMELLSLTSEDFAVYYCTRYHGSRAMDYWGQGTTVTVSS
VL: DIVLTQSPLSLAVSLGQPAIISCKASQSVSFAGTSLMHWYHQKPGQQPRLLIYRASNLEAGVPDRFSGSGSKTDFTLTISPVEAEDAATYYCQQSREYPYTFGGGTKLEIK
notes: IgG
B7: MYT0635 (antibody, V domains shown)
VH: QVQLVQSGAEVVKPGASVKISCKASGYTFTGYFMNWVKQSPGQSLEWIGRIHPYDGDTFYNQKFQGKATLTVDKSSNTAHMELLSLTSEDFAVYYCTRYDGSRAHDYWGQGTTVTVSS
VL: DIVLTQSPLSLAVSLGQPAIISCKASQSVSFAGTSLMHWYHQKPGQQPRLLIYRASNLEAGVPDRFSGSGSKTDFTLTISPVEAEDAATYYCQQSREYPYTFGGGTKLEIK
notes: IgG
B8: MYT0632 (antibody, V domains shown)
VH: QVQLVQSGAEVVKPGASVKISCKASGYTFTGYFMNWVKQSPGQSLEWIGRIHPYDGDTFYNQKFQGKATLTVDKSSNTAHMELLSLTSEDFAVYYCTRYDGHRAMDYWGQGTTVTVSS
VL: DIVLTQSPLSLAVSLGQPAIISCKASQSVSFAGTSLMHWYHQKPGQQPRLLIYRASNLEAGVPDRFSGSGSKTDFTLTISPVEAEDAATYYCQQSREYPYTFGGGTKLEIK
notes: IgG

The results in this text go back to patent US20220298260A1 (MYTHIC THERAPEUTICS, published 2022).

T1 sequence (P15328 25-233 limits assumed): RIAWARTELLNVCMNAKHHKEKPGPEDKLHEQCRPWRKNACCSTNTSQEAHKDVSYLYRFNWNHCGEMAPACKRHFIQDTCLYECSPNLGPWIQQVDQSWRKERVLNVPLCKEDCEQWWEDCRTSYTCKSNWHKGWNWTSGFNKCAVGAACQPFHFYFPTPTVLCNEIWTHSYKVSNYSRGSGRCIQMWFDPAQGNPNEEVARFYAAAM

The test concerns the target T1, FOLR1 (R&D Systems, Cat #5646-FR) (human, UniProt P15328 25-233).
T1 construct: Bought soluble protein; also called Folate Receptor 1
The experiment in a line: BLI, IgG on anti-human Fc sensor, 50 nM FOLR1.
In the case of B1, the binding result is given as “binds”.
Then B2, with “binds”; and B3, with “binds”; and B4, with “binds”.
Regarding B5, the binding result is on record as “binds”.
As for B6, the entry is “binds”; as for B7, “binds”; as for B8, “binds”.
